The results in this text go back to patent publication US20170056486A1 (IMMATICS BIOTECHNOLOGIES, published 2017).

The experiment concerns the target T1, HLA-A*02:01 (human).
T1 construct: MHC class I molecule without the peptide
Briefly: biotinylated peptide-MHC complex used as negative control in T-cell priming. The method, then:
800.000 beads/200 μl were coated in 96-well plates in the presence of 4×12.5 ng different biotin-pMHC, washed and 600 ng biotin anti-CD28 were added subsequently in a volume of 200 μl. Stimulations were initiated in 96-well plates by co-incubating 1×10⁶ CD8+ T cells with 2×10⁵ washed coated beads in 200 μl TCM supplemented with 5 ng/ml IL-12 (PromoCell) for 3 days at 37° C. Half of the medium was then exchanged by fresh TCM supplemented with 80 U/ml IL-2 and incubating was continued for 4 days at 37° C. This stimulation cycle was performed for a total of three times. For the pMHC multimer readout using 8 different pMHC molecules per condition, a two-dimensional combinatorial coding approach was used as previously described (Andersen et al., 2012) with minor modifications encompassing coupling to 5 different fluorochromes. […] For analysis, a BD LSRII SORP cytometer equipped with appropriate lasers and filters was used. Peptide specific cells were calculated as percentage of total CD8+ cells. Evaluation of multimeric analysis was done using the FlowJo software (Tree Star, Oregon, USA). In vitro priming of specific multimer+ CD8+ lymphocytes was detected by comparing to negative control stimulations.

B1: DDX5-001 (YLLPAIVHI from DDX5) (peptide)
peptide: YLLPAIVHI
notes: negative control peptide of the T-cell stimulations; also called 419
On to B1, for which the binding result is listed as “binds”.
